B1: Nucleosome-remodeling factor subunit BPTF, residues 2862 to 2918; numbered along this chain, Q12830 (parent)
chain: TKKDTKLYCICKTPYDESKFYIGCDRCQNWYHGRCVGILQSEAELIDEYVCPQCQST

± gives the uncertainty stated by the source.

From the Human Domainome abundance scans (Beltran et al. 2025) come the findings set out here.

Variants of B1 are the subject of this series. As to the kind of experiment: abundance fitness (aPCA) (normalised: wild type 0, dead -1); higher = more abundant; growth selection in yeast, the domain comes from the species named. To be noted: Homo sapiens.
Take TKKDTKLYCICKTPYDESKFYIICDRCQNWYHGRCVGILQSEAELIDEYVCPQCQST: the abundance fitness is -0.546 ± 0.2.

As to TKKDTKLYCICKTPYDESKFYIVCDRCQNWYHGRCVGILQSEAELIDEYVCPQCQST, the abundance fitness was -0.223 ± 0.079.

In the case of TKKDTKLYCICKTPYDESKFYISCDRCQNWYHGRCVGILQSEAELIDEYVCPQCQST, the abundance fitness was -0.085 ± 0.079.

With TKKDTKLYCICKTPYDESKFYIFCDRCQNWYHGRCVGILQSEAELIDEYVCPQCQST, the abundance fitness is -0.139 ± 0.13.

For the variant TKKDTKLYCICKTPYDESKFYIRCDRCQNWYHGRCVGILQSEAELIDEYVCPQCQST, the abundance fitness was -0.126 ± 0.078.

Consider TKKDTKLYCICKTPYDESKFYIYCDRCQNWYHGRCVGILQSEAELIDEYVCPQCQST, for which the abundance fitness was -0.031 ± 0.13.

Regarding TKKDTKLYCICKTPYDESKFYIQCDRCQNWYHGRCVGILQSEAELIDEYVCPQCQST, the abundance fitness is -0.079 ± 0.12.

For TKKDTKLYCICKTPYDESKFYINCDRCQNWYHGRCVGILQSEAELIDEYVCPQCQST, the abundance fitness was -0.133 ± 0.14.

Turning to TKKDTKLYCICKTPYDESKFYIMCDRCQNWYHGRCVGILQSEAELIDEYVCPQCQST, the abundance fitness is -0.016 ± 0.12.

With TKKDTKLYCICKTPYDESKFYIPCDRCQNWYHGRCVGILQSEAELIDEYVCPQCQST, the abundance fitness was -0.297 ± 0.1.

With TKKDTKLYCICKTPYDESKFYIKCDRCQNWYHGRCVGILQSEAELIDEYVCPQCQST, the abundance fitness was -0.13 ± 0.13.

With TKKDTKLYCICKTPYDESKFYIDCDRCQNWYHGRCVGILQSEAELIDEYVCPQCQST, the abundance fitness was -0.085 ± 0.096.

On to TKKDTKLYCICKTPYDESKFYITCDRCQNWYHGRCVGILQSEAELIDEYVCPQCQST, for which the abundance fitness is -0.021 ± 0.095.

With TKKDTKLYCICKTPYDESKFYIHCDRCQNWYHGRCVGILQSEAELIDEYVCPQCQST, the abundance fitness came out at 0.029 ± 0.14.

For the variant TKKDTKLYCICKTPYDESKFYIACDRCQNWYHGRCVGILQSEAELIDEYVCPQCQST, the abundance fitness was -0.099 ± 0.077.

On to TKKDTKLYCICKTPYDESKFYICCDRCQNWYHGRCVGILQSEAELIDEYVCPQCQST, for which the abundance fitness is -0.007 ± 0.12.

As to TKKDTKLYCICKTPYDESKFYIWCDRCQNWYHGRCVGILQSEAELIDEYVCPQCQST, the abundance fitness is -0.177 ± 0.11.

For the variant TKKDTKLYCICKTPYDESKFYIGDDRCQNWYHGRCVGILQSEAELIDEYVCPQCQST, the abundance fitness was -0.765 ± 0.12.

Turning to TKKDTKLYCICKTPYDESKFYIGWDRCQNWYHGRCVGILQSEAELIDEYVCPQCQST, the abundance fitness was -0.974 ± 0.15.

Regarding TKKDTKLYCICKTPYDESKFYIGPDRCQNWYHGRCVGILQSEAELIDEYVCPQCQST, the abundance fitness was -0.539 ± 0.095.

For the variant TKKDTKLYCICKTPYDESKFYIGRDRCQNWYHGRCVGILQSEAELIDEYVCPQCQST, the abundance fitness was -0.584 ± 0.096.

As for TKKDTKLYCICKTPYDESKFYIGADRCQNWYHGRCVGILQSEAELIDEYVCPQCQST, the abundance fitness is -1.02 ± 0.16.

Take TKKDTKLYCICKTPYDESKFYIGHDRCQNWYHGRCVGILQSEAELIDEYVCPQCQST: the abundance fitness was -0.972 ± 0.18.

Consider TKKDTKLYCICKTPYDESKFYIGFDRCQNWYHGRCVGILQSEAELIDEYVCPQCQST, for which the abundance fitness was -0.735 ± 0.14.

For the variant TKKDTKLYCICKTPYDESKFYIGEDRCQNWYHGRCVGILQSEAELIDEYVCPQCQST, the abundance fitness was -0.641 ± 0.14.

On to TKKDTKLYCICKTPYDESKFYIGIDRCQNWYHGRCVGILQSEAELIDEYVCPQCQST, for which the abundance fitness was -0.871 ± 0.16.

As for TKKDTKLYCICKTPYDESKFYIGTDRCQNWYHGRCVGILQSEAELIDEYVCPQCQST, the abundance fitness is -0.933 ± 0.12.

Take TKKDTKLYCICKTPYDESKFYIGVDRCQNWYHGRCVGILQSEAELIDEYVCPQCQST: the abundance fitness is -0.908 ± 0.11.

In the case of TKKDTKLYCICKTPYDESKFYIGLDRCQNWYHGRCVGILQSEAELIDEYVCPQCQST, the abundance fitness was -0.884 ± 0.087.

Take TKKDTKLYCICKTPYDESKFYIGMDRCQNWYHGRCVGILQSEAELIDEYVCPQCQST: the abundance fitness was -1.05 ± 0.13.

Regarding TKKDTKLYCICKTPYDESKFYIGNDRCQNWYHGRCVGILQSEAELIDEYVCPQCQST, the abundance fitness is -0.966 ± 0.16.

TKKDTKLYCICKTPYDESKFYIGGDRCQNWYHGRCVGILQSEAELIDEYVCPQCQST: the abundance fitness was -0.909 ± 0.13.

In the case of TKKDTKLYCICKTPYDESKFYIGYDRCQNWYHGRCVGILQSEAELIDEYVCPQCQST, the abundance fitness was -0.894 ± 0.1.

For the variant TKKDTKLYCICKTPYDESKFYIGSDRCQNWYHGRCVGILQSEAELIDEYVCPQCQST, the abundance fitness was -0.976 ± 0.1.

With TKKDTKLYCICKTPYDESKFYKGCDRCQNWYHGRCVGILQSEAELIDEYVCPQCQST, the abundance fitness is -0.551 ± 0.12.

As to TKKDTKLYCICKTPYDESKFYPGCDRCQNWYHGRCVGILQSEAELIDEYVCPQCQST, the abundance fitness is -0.87 ± 0.12.

Consider TKKDTKLYCICKTPYDESKFYYGCDRCQNWYHGRCVGILQSEAELIDEYVCPQCQST, for which the abundance fitness is -0.617 ± 0.15.

As to TKKDTKLYCICKTPYDESKFYRGCDRCQNWYHGRCVGILQSEAELIDEYVCPQCQST, the abundance fitness was -0.475 ± 0.073.

Regarding TKKDTKLYCICKTPYDESKFYQGCDRCQNWYHGRCVGILQSEAELIDEYVCPQCQST, the abundance fitness was -0.641 ± 0.11.

Turning to TKKDTKLYCICKTPYDESKFYTGCDRCQNWYHGRCVGILQSEAELIDEYVCPQCQST, the abundance fitness was -0.398 ± 0.12.

For TKKDTKLYCICKTPYDESKFYSGCDRCQNWYHGRCVGILQSEAELIDEYVCPQCQST, the abundance fitness was -0.786 ± 0.1.

On to TKKDTKLYCICKTPYDESKFYNGCDRCQNWYHGRCVGILQSEAELIDEYVCPQCQST, for which the abundance fitness is -0.803 ± 0.18.

For TKKDTKLYCICKTPYDESKFYHGCDRCQNWYHGRCVGILQSEAELIDEYVCPQCQST, the abundance fitness is -0.678 ± 0.22.

On to TKKDTKLYCICKTPYDESKFYVGCDRCQNWYHGRCVGILQSEAELIDEYVCPQCQST, for which the abundance fitness is -0.038 ± 0.088.

TKKDTKLYCICKTPYDESKFYWGCDRCQNWYHGRCVGILQSEAELIDEYVCPQCQST: the abundance fitness was -0.533 ± 0.11.

With TKKDTKLYCICKTPYDESKFYLGCDRCQNWYHGRCVGILQSEAELIDEYVCPQCQST, the abundance fitness stood at 0.015 ± 0.067.

TKKDTKLYCICKTPYDESKFYMGCDRCQNWYHGRCVGILQSEAELIDEYVCPQCQST: the abundance fitness is -0.237 ± 0.12.
